Source: the supplement of paper PMC11246515
± gives the standard deviation of the averaged measurements.

Experiment: total protein half-life in vivo (active degradation + dilution); higher = more stable protein
[1] = E. coli NCM3722 delta-clpP delta-lon delta-hslV, growth: N-lim chemostat, doubling time 6 h
[2] = E. coli NCM3722 delta-clpP, growth: N-lim chemostat, doubling time 6 h
[3] = E. coli NCM3722 delta-hslV, growth: N-lim chemostat, doubling time 6 h
[4] = E. coli NCM3722 delta-lon, growth: N-lim chemostat, doubling time 6 h
[5] = E. coli NCM3722 delta-smpB, growth: N-lim chemostat, doubling time 6 h
[6] = wild type E. coli NCM3722, growth: C-lim chemostat, doubling time 3 h
[7] = wild type E. coli NCM3722, growth: C-lim chemostat, doubling time 6 h
[8] = wild type E. coli NCM3722, growth: C-lim chemostat, doubling time 12 h
[9] = wild type E. coli NCM3722, growth: N-lim chemostat, doubling time 6 h
[10] = wild type E. coli NCM3722, growth: N-lim chemostat, doubling time 12 h
[11] = wild type E. coli NCM3722, growth: P-lim chemostat, doubling time 6 h
[12] = wild type E. coli NCM3722, growth: P-lim chemostat, doubling time 12 h

Sequence	total protein half-life in vivo [1] [h]	total protein half-life in vivo [2] [h]	total protein half-life in vivo [3] [h]	total protein half-life in vivo [4] [h]	total protein half-life in vivo [5] [h]	total protein half-life in vivo [6] [h]	total protein half-life in vivo [7] [h]	total protein half-life in vivo [8] [h]	total protein half-life in vivo [9] [h]	total protein half-life in vivo [10] [h]	total protein half-life in vivo [11] [h]	total protein half-life in vivo [12] [h]
MSKAGKITAAISGAFLLLIVVAIILIATFDWNRLKPTINQKVSAELNRPFAIRGDLGVVWERQKQETGWRSWVPWPHVHAEDIILGNPPDIPEVTMVHLPRVEATLAPLALLTKTVWLPWIKLEKPDARLIRLSEKNNNWTFNLANDDNKDANAKPSAWSFRLDNILFDQGRIAIDDKVSKADLEIFVDPLGKPLPFSEVTGSKGKADKEKVGDYVFGLKAQGRYNGEPLTGTGKIGGMLALRGEGTPFPVQADFRSGNTRVAFDGVVNDPMKMGGVDLRLKFSGDSLGDLYELTGVLLPDTPPFETDGRLVAKIDTEKSSVFDYRGFNGRIGDSDIHGSLVYTTGKPRPKLEGDVESRQLRLADLGPLIGVDSGKGAEKSKRSEQKKGEKSVQPAGKVLPYDRFETDKWDVMDADVRFKGRRIEHGSSLPISDLSTHIILKNADLRLQPLKFGMAGGSIAANIHLEGDKKPMQGRADIQARRLKLKELMPDVELMQKTLGEMNGDAELRGSGNSVAALLGNSNGNLKLLMNDGLVSRNLMEIVGLNVGNYIVGAIFGDDEVRVNCAAANLNIANGVARPQIFAFDTENALINVTGTASFASEQLDLTIDPESKGIRIITLRSPLYVRGTFKNPQAGVKAGPLIARGAVAAALATLVTPAAALLALISPSEGEANQCRTILSQMKK	6.24 ± 0.57	5.9 ± 0.17	6.13 ± 0.039	6.42 ± 0.4	5.438 ± 0.026	3.09 ± 0.22	5.72 ± 0.19	10.9 ± 1.2	5.57 ± 0.16	10.9 ± 0.42	5.49 ± 0.3	9.41 ± 0.73
MSKFLDRFRYFKQKGETFADGHGQLLNTNRDWEDGYRQRWQHDKIVRSTHGVNCTGSCSWKIYVKNGLVTWETQQTDYPRTRPDLPNHEPRGCPRGASYSWYLYSANRLKYPMMRKRLMKMWREAKALHSDPVEAWASIIEDADKAKSFKQARGRGGFVRSSWQEVNELIAASNVYTIKNYGPDRVAGFSPIPAMSMVSYASGARYLSLIGGTCLSFYDWYCDLPPASPQTWGEQTDVPESADWYNSSYIIAWGSNVPQTRTPDAHFFTEVRYKGTKTVAVTPDYAEIAKLCDLWLAPKQGTDAAMALAMGHVMLREFHLDNPSQYFTDYVRRYTDMPMLVMLEERDGYYAAGRMLRAADLVDALGQENNPEWKTVAFNTNGEMVAPNGSIGFRWGEKGKWNLEQRDGKTGEETELQLSLLGSQDEIAEVGFPYFGGDGTEHFNKVELENVLLHKLPVKRLQLADGSTALVTTVYDLTLANYGLERGLNDVNCATSYDDVKAYTPAWAEQITGVSRSQIIRIAREFADNADKTHGRSMIIVGAGLNHWYHLDMNYRGLINMLIFCGCVGQSGGGWAHYVGQEKLRPQTGWQPLAFALDWQRPARHMNSTSYFYNHSSQWRYETVTAEELLSPMADKSRYTGHLIDFNVRAERMGWLPSAPQLGTNPLTIAGEAEKAGMNPVDYTVKSLKEGSIRFAAEQPENGKNHPRNLFIWRSNLLGSSGKGHEFMLKYLLGTEHGIQGKDLGQQGGVKPEEVDWQDNGLEGKLDLVVTLDFRLSSTCLYSDIILPTATWYEKDDMNTSDMHPFIHPLSAAVDPAWEAKSDWEIYKAIAKKFSEVCVGHLGKETDIVTLPIQHDSAAELAQPLDVKDWKKGECDLIPGKTAPHIMVVERDYPATYERFTSIGPLMEKIGNGGKGIAWNTQSEMDLLRKLNYTKAEGPAKGQPMLNTAIDAAEMILTLAPETNGQVAVKAWAALSEFTGRDHTHLALNKEDEKIRFRDIQAQPRKIISSPTWSGLEDEHVSYNAGYTNVHELIPWRTLSGRQQLYQDHQWMRDFGESLLVYRPPIDTRSVKEVIGQKSNGNQEKALNFLTPHQKWGIHSTYSDNLLMLTLGRGGPVVWLSEADAKDLGIADNDWIEVFNSNGALTARAVVSQRVPAGMTMMYHAQERIVNLPGSEITQQRGGIHNSVTRITPKPTHMIGGYAHLAYGFNYYGTVGSNRDEFVVVRKMKNIDWLDGEGNDQVQESVK	6.33 ± 1.8	–	5.88 ± 0.73	6.6 ± 0.84	4.97 ± 0.39	2.41	6.81	13.2	6.23 ± 0.94	–	5.64 ± 0.29	12.1 ± 1.3
MSKIKGNVKWFNESKGFGFITPEDGSKDVFVHFSAIQTNGFKTLAEGQRVEFEITNGAKGPSAANVIAL [P0A972]	3.54 ± 0.22	2.27 ± 0.041	1.7 ± 0.036	3.44 ± 0.12	1.96 ± 0.28	2.156 ± 0.014	2.37 ± 0.17	2.62 ± 0.54	1.8 ± 0.15	2.23 ± 0.19	1.945 ± 0.018	3.16 ± 0.3
MSKKIAVLITDEFEDSEFTSPADEFRKAGHEVITIEKQAGKTVKGKKGEASVTIDKSIDEVTPAEFDALLLPGGHSPDYLRGDNRFVTFTRDFVNSGKPVFAICHGPQLLISADVIRGRKLTAVKPIIIDVKNAGAEFYDQEVVVDKDQLVTSRTPDDLPAFNREALRLLGA	6.07 ± 1.3	4.34 ± 0.18	5.59 ± 1.4	5.74 ± 0.21	4.51 ± 0.087	3.22 ± 0.3	5.32 ± 0.083	9.27 ± 0.35	4.72 ± 0.18	7.76 ± 0.18	5.12 ± 0.29	10.6 ± 1.1
MSKKYIIGIDGGSQSTKVVMYDLEGNVVCEGKGLLQPMHTPDADTAEHPDDDLWASLCFAGHDLMSQFAGNKEDIVGIGLGSIRCCRALLKADGTPAAPLISWQDARVTRPYEHTNPDVAYVTSFSGYLTHRLTGEFKDNIANYFGQWPVDYKSWAWSEDAAVMDKFNIPRHMLFDVQMPGTVLGHITPQAALATHFPAGLPVVCTTSDKPVEALGAGLLDDETAVISLGTYIALMMNGKALPKDPVAYWPIMSSIPQTLLYEGYGIRKGMWTVSWLRDMLGESLIQDARAQDLSPEDLLNKKASCVPPGCNGLMTVLDWLTNPWEPYKRGIMIGFDSSMDYAWIYRSILESVALTLKNNYDNMCNEMNHFAKHVIITGGGSNSDLFMQIFADVFNLPARRNAINGCASLGAAINTAVGLGLYPDYATAVDNMVRVKDIFIPIESNAKRYDAMNKGIFKDLTKHTDVILKKSYEVMHGELGNVDSIQSWSNA	2.5	–	–	–	–	2.855 ± 0.0047	4.03 ± 0.54	8.14 ± 1.2	–	–	–	2.92
MSKPFKLNSAFKPSGDQPEAIRRLEEGLEDGLAHQTLLGVTGSGKTFTIANVIADLQRPTMVLAPNKTLAAQLYGEMKEFFPENAVEYFVSYYDYYQPEAYVPSSDTFIEKDASVNEHIEQMRLSATKAMLERRDVVVVASVSAIYGLGDPDLYLKMMLHLTVGMIIDQRAILRRLAELQYARNDQAFQRGTFRVRGEVIDIFPAESDDIALRVELFDEEVERLSLFDPLTGQIVSTIPRFTIYPKTHYVTPRERIVQAMEEIKEELAARRKVLLENNKLLEEQRLTQRTQFDLEMMNELGYCSGIENYSRFLSGRGPGEPPPTLFDYLPADGLLVVDESHVTIPQIGGMYRGDRARKETLVEYGFRLPSALDNRPLKFEEFEALAPQTIYVSATPGNYELEKSGGDVVDQVVRPTGLLDPIIEVRPVATQVDDLLSEIRQRAAINERVLVTTLTKRMAEDLTEYLEEHGERVRYLHSDIDTVERMEIIRDLRLGEFDVLVGINLLREGLDMPEVSLVAILDADKEGFLRSERSLIQTIGRAARNVNGKAILYGDKITPSMAKAIGETERRREKQQKYNEEHGITPQGLNKKVVDILALGQNIAKTKAKGRGKSRPIVEPDNVPMDMSPKALQQKIHELEGLMMQHAQNLEFEEAAQIRDQLHQLRELFIAAS [P0A8F8]	5.26 ± 0.16	4.561 ± 0.016	2.99 ± 0.055	3.39 ± 0.18	2.85 ± 0.065	2.44 ± 0.18	4.02 ± 0.073	6.348 ± 0.01	2.96 ± 0.15	4.85 ± 0.78	3.67 ± 0.054	5.85 ± 0.49
